Non-standard residues stand in square brackets, D forms with d. No end group written: not given here. *: point of attachment. FITC = O=C1OC2(c3ccc(O)cc3Oc3cc(O)ccc32)c2ccc(NC(=S)*)cc21; pS = N[C@@H](COP(=O)(O)O)C(=O)O
B1: full-length human 14-3-3ζ fused to the C terminus of MBP (natural protein)
chain: MDKNELVQKAKLAEQAERYDDMAACMKSVTEQGAELSNEERNLLSVAYKNVVGARRSSWRVVSSIEQKTEGAEKKQQMAREYREKIETELRDICNDVLSLLEKFLIPNASQAESKVFYLKMKGDYYRYLAEVAAGDDKKGIVDQSQQAYQEAFEISKKEMQPTHPIRLGLALNFSVFYYEILNSPEKACSLAKTAFDEAIAELDTLSEESYKDSTLIMQLLRDNLTLWTSDTQGDEAEAGEGGEN
B2: full-length human 14-3-3γ fused to the C terminus of MBP (natural protein)
chain: MVDREQLVQKARLAEQAERYDDMAAAMKNVTELNEPLSNEERNLLSVAYKNVVGARRSSWRVISSIEQKTSADGNEKKIEMVRAYREKIEKELEAVCQDVLSLLDNYLIKNCSETQYESKVFYLKMKGDYYRYLAEVATGEKRATVVESSEKAYSEAHEISKEHMQPTHPIRLGLALNYSVFYYEIQNAPEQACHLAKTAFDDAIAELDTLNEDSYKDSTLIMQLLRDNLTLWTSDQQDDDGGEGNN

Experiments:
[1] = biological target: T1, HPV33 E6 phospho-PBM peptide p33E6 (human papillomavirus type 33); test: FP
[2] = biological target: T2, HPV35 E6 phospho-PBM peptide p35E6 (human papillomavirus type 35); test: FP
[3] = biological target: T1, HPV33 E6 phospho-PBM peptide p33E6; test: FP; remark: listed apart in the source
[4] = biological target: T2, HPV35 E6 phospho-PBM peptide p35E6; test: FP; remark: listed apart in the source
[5] = biological target: T1, HPV33 E6 phospho-PBM peptide p33E6; test: FP; +FSC
[6] = biological target: T2, HPV35 E6 phospho-PBM peptide p35E6; test: FP; +FSC
[7] = biological target: T1, HPV33 E6 phospho-PBM peptide p33E6; test: FP; with FSC
[8] = biological target: T2, HPV35 E6 phospho-PBM peptide p35E6; test: FP; with FSC
[9] = biological target: T3, unfused 14-3-3ε devoid of the flexible C-terminal tail (human); test: FP
T3 chain: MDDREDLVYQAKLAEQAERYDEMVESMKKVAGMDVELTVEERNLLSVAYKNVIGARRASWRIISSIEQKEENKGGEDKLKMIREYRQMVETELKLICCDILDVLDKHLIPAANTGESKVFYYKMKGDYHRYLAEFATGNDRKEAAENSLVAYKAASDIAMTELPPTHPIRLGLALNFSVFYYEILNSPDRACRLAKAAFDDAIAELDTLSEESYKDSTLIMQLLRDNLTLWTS

[10] = biological target: T4, full-length human 14-3-3σ fused to the C terminus of MBP (human, UniProt P31947 1-248); test: FP
T4 chain: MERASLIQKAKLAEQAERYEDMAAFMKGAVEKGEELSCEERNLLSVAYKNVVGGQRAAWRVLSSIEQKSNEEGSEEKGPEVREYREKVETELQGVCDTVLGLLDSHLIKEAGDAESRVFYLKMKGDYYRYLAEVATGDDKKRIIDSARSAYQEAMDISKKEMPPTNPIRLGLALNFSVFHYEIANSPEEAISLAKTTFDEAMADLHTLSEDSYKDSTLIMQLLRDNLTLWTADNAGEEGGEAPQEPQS

[11] = biological target: T5, full-length human 14-3-3η fused to the C terminus of MBP (human, UniProt Q04917 1-246); test: FP
T5 chain: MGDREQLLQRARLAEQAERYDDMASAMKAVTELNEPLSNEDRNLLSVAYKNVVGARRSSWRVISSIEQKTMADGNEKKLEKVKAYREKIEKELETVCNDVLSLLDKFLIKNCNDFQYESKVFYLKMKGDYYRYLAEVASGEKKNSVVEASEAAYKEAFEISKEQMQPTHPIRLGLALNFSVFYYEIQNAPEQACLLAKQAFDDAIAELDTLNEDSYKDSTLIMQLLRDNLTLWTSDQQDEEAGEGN

[12] = biological target: B2; test: FP
[13] = biological target: T6, full-length human 14-3-3β fused to the C terminus of MBP (human, UniProt P31946 1-246); test: FP
T6 chain: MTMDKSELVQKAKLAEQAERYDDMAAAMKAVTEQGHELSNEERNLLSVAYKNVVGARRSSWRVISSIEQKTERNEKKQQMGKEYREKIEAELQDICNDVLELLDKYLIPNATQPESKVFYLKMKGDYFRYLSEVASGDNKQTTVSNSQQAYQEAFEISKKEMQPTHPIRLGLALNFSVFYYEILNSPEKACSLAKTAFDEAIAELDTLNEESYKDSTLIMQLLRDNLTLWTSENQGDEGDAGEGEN

[14] = biological target: T7, full-length human 14-3-3τ fused to the C terminus of MBP (human, UniProt P27348 1-245); test: FP
T7 chain: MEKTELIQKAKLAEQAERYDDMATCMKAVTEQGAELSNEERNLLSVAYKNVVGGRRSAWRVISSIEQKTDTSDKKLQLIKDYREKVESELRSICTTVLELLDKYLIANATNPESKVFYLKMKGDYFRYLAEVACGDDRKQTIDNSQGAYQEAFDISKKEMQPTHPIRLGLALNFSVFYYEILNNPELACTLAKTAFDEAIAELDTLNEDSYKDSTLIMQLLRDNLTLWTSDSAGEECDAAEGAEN

[15] = biological target: T8, full-length human 14-3-3ε fused to the C terminus of MBP (human, UniProt P62258 1-255); test: FP
T8 chain: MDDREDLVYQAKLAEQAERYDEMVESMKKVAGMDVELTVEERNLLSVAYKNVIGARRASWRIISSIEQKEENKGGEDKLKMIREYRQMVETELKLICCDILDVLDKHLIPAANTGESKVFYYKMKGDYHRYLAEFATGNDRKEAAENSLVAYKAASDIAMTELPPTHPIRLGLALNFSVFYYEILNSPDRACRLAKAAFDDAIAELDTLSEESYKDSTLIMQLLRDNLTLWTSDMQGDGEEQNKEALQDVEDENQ

[16] = biological target: T9, unfused 14-3-3τ devoid of the flexible C-terminal tail (human); test: FP
T9 chain: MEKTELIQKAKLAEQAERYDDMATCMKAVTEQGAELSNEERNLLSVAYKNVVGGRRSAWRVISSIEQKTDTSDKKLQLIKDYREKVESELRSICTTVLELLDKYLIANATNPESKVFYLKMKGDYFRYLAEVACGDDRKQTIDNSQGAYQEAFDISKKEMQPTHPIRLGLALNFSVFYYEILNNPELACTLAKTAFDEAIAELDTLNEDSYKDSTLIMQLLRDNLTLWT

[17] = biological target: B1; test: FP
[18] = biological target: T10, unfused 14-3-3β devoid of the flexible C-terminal tail (human); test: FP
T10 chain: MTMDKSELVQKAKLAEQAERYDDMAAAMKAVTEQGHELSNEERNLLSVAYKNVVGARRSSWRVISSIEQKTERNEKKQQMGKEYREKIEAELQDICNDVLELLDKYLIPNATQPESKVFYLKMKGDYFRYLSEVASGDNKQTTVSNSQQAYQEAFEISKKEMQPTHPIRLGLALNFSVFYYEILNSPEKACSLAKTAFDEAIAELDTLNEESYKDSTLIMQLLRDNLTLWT

[19] = biological target: B2; test: FP; with FSC

Binder | Kd [1] [µM] | Kd [2] [µM] | Kd [3] [µM] | Kd [4] [µM] | Kd [5] [µM] | Kd [6] [µM] | Kd [7] [µM] | Kd [8] [µM] | Kd [9] [µM] | Kd [10] [µM] | Kd [11] [µM] | Kd [12] [µM] | Kd [13] [µM] | Kd [14] [µM] | Kd [15] [µM] | Kd [16] [µM] | Kd [17] [µM] | Kd [18] [µM] | Kd [19] [µM]
B1 | 2.7 | 191 | 2.72 | 191 | 3.9 | 294 | 3.94 | 294 | – | – | – | – | – | – | – | – | – | – | –
B2 | 0.9 | 125 | – | 125 | 2.2 | 228 | 2.15 | – | – | – | – | – | – | – | – | – | – | – | –
{FITC}-WLRRA[pS]APLPGLK [fluorescently labeled HSPB6 phosphopeptide (fpB6)] | – | – | – | – | – | – | – | – | 5.27 | 9.62 | 2.47 | 1.95 | 5.22 | 9 | 7.17 | 6.53 | 4.76 | 3.75 | 4.4
